Source: the nanobody polyreactivity screen of Harvey et al. (2022)

test: yeast display, Sf9 membrane polyspecificity reagent, FACS + sequencing; frameworks hold sequencing errors
In short: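 After 36–48 hours of galactose induction, yeast (Saccharomyces cerevisiae BJ5465) displaying a synthetic nanobody library were stained at 4 °C for 1 hour with 10% biotinylated, detergent-solubilized Sf9 membrane reagent. Streptavidin microbeads enriched the stained cells before FACS sorting into low and high (top ~1%) gates on anti-HA and streptavidin fluorescence. Each clone's polyreactivity label reflects its gate of origin.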

Row | Sequence | polyreactivity (PSR sort gate)
1 | QVRLVESGGGLVQAGGSLRLSCAASAFTFDSYAMGWNRQAPGKERELVAAITWSGGSTYYADSVKGRFTISRDIAKNTVYFQMNSLKPEDTAVYYCNVDRYDGDYCGQGTQVTVSS | high polyreactivity
2 | QVRLVESGGGLVQAGGSLRLSCAASGFIFWRNAMGWYRQAPGKERELVAAITSGGSTNYADSVKGRFTISRDNAKNTVYLQMNSLKPVDTAVYYCAARQWFSHRRWGGSRYDYWGQGTQVTVSS | low polyreactivity
3 | QVRLVESGGGLVQAGRSLRLSCAASGRIFWNYAMGWYRQAPGKERELVATIDKSGGSTRYADSVKGRFTISRDTAKNTVYLQMNSLKPEDTAVYYCAARGPASRGFRGARSGLTFDYWGQGTQVTVSS | low polyreactivity
4 | QYQLVESGGGLVQAGGSLRLSCAASGFIFSTNAMGWYRQAPGKERELVAAISRRGGNTYYADSLKGRFTISRDNAKNTVYLQMNSLKPEDTAVYYCAKRGVYGYRYYYWGQGTQVTVSS | high polyreactivity
5 | QYQLVESGGGLVQAGRTLRLSWAASGRIFVRYVMGCYRQAPVKERELVAAISSSGGSTYYADSVKGRFTISRDNAKNWVYLQIYSLKPEDTAVYYCATDFMDKYILPYDYWGQGTQVTVSS | low polyreactivity
